# From patent publication US12319941B2, “Thermophilic recombinant type II pullulanase and application thereof” (Jiangnan University, priority 2019, dated 2025)
# Entries after “also recorded” stand apart in the source; their conditions may differ. Where two headings read alike, the source gives them in different places.
# Columns and labels:
# [1] = tested on: recombinant type II pullulanase Sumo-PulPy; experiment: Effect of metal ions and chemical reagents on the enzyme activity of Sumo-PulPy; assay type: biochemical, Pyrococcus yayanosii CH1; details: for Relative enzyme activity (%): pH 6.6; for effect on the enzyme activity of Sumo-PulPy (in words): reagent added to enzymatic reaction system
# [2] = Analysis of degradation products of Amylose from potato (MALDI-TOF/TOF); assay type: biochemical; details: 1% Amylose from potato, 95° C., 6 h
# Procedure: (§1) The sample processing procedure was as follows: an appropriate amount of pure enzyme solution was mixed well with 1% pullulan and 1% Amylose from potato respectively, enzymatically hydrolyzed at 95° C. for 6 h, cooled to room temperature and then centrifuged at 12000 r/min for 20 min. And the supernatant was taken. The enzymatic hydrolysis products of pullulan and Amylose from potato were analyzed using high performance liquid chromatography (HPLC, conditions: Hpersil NH2 amino column (4.6×250 mm), column temperature 40° C., mobile phase (acetonitrile:water=67:33), flow rate 1.0 mL/min, injection volume 20 μL) and MALDI-TOF/TOF matrix-assisted laser […]/ionization tandem time-of-flight mass spectrometer respectively.
# [3] = DNS method enzyme activity and kinetic parameters (Lineweaver-Burk) with pullulan as substrate; assay type: biochemical; details: for Km / Vmax: pullulan 1.25-40 mg/mL, optimum conditions
# Procedure: (§2) The determination of the activity of recombinant type II pullulanase Sumo-PulPy was adopted the 3,5-dinitrosalicylic acid (DNS) method. The specific steps were as follows: reacting 100 μL reaction system (10 μL potassium phosphate buffer with different pH with a final concentration of 100 mM, 50 μL pullulan with a final concentration of 3% and 40 μL enzyme solution) at a certain temperature for 15 min, adding 100 μL DNS reaction solution, boiling in a water bath for 6 min, immediately cooling to room temperature with running water, adding and diluting with distilled water, mixing well, and determining […]. One enzyme activity unit (U) was defined as the amount of enzyme required to release reducing sugar correspond to the reduction capacity of 1 μmol glucose per minute under assay conditions.
# Using different concentrations of pullulan (1.25, 2.5, 5, 10, 20, and 40 mg/mL) as the substrate, the enzyme activity was determined under the optimum conditions, the corresponding reaction rate was calculated, and Km value and Vmax were obtained by Linewear Burk method using Michaelis-Menten Equation.
# [4] = Optimum pH and pH stability of the enzyme; assay type: biochemical; details: for optimum pH: 100 mM potassium phosphate buffer pH 5.8-8.0; for pH stability / pH tolerance: between pH 5.8 and 8.0
# Procedure: as §2
# Determination of the optimum pH: the purified Sumo-PulPy was subjected to enzymatic reaction in 100 mM potassium phosphate buffer (pH 5.8-8.0) at 95° C.
# Determination of the pH stability of the enzyme: the enzyme solution was added into 100 mM potassium phosphate buffer (pH 5.8-8.0) and disposed at 4° C. for 4 h, and then the enzymatic reaction was performed at pH 6.6 and 95° C. to determine the remaining enzyme activity of Sumo-PulPy. […] Except for a 12% loss of enzyme activity after disposal at pH 5.8 for 4 h, the rest has almost no effect on the enzyme activity (FIG. 4).
# [5] = Analysis of degradation products of pullulan (HPLC); assay type: biochemical; details: 1% pullulan, 95° C., 6 h
# Procedure: as §1
# [6] = assay type: biochemical; details: for optimum temperature: potassium phosphate buffer, 75-100° C.
# Procedure: as §2
# Determination of the optimum temperature of the enzyme: the enzymatic reaction was performed in a potassium phosphate buffer (pH 6.6) at 75-100° C.
# Determination of the thermal stability of the enzyme: the enzyme solution with the same amount of enzyme was placed under the conditions of 80° C., 90° C., 95° C. and 100° C., respectively, and disposed for 2 h, 4 h, 6 h, 8 h and 10 h, respectively, and the enzymatic reaction was performed at pH 6.6 and 95° C. to determine the remaining enzyme activity of Sumo-PulPy.
# [7] = reagent 2 mM, 100% = no reagent, 95° C.
# [8] = reagent 1%, 100% = no reagent, 95° C.
molecule,measurement,setting,value
[Ca+2].[Cl-].[Cl-] [CaCl2],Relative enzyme activity (%),[1]; [7],71.3 ± 3.5%
[Cl-].[Cl-].[Co+2] [CoCl2],Relative enzyme activity (%),[1],150.0 ± 4.8%
[Cl][Cu][Cl] [CuCl2],Relative enzyme activity (%),[1]; [7],45.9 ± 3.5%
O[C@@H](CS)[C@@H](O)CS [DTT],Relative enzyme activity (%),[1]; [8],337.2 ± 4.7%
O=S(=O)([O-])[O-].[Fe+2] [FeSO4],Relative enzyme activity (%),[1]; [7],183.1 ± 4.0%
[Cl-].[K+] [KCl],Relative enzyme activity (%),[1]; [7],104.1 ± 3.0%
same,effect on the enzyme activity of Sumo-PulPy (in words),[1],weakly promote
[Cl-].[Cl-].[Mg+2] [MgCl2],Relative enzyme activity (%),[1]; [7],94.9 ± 3.4%
[Cl][Mn][Cl] [MnCl2],Relative enzyme activity (%),[1]; [7],91.2 ± 2.9%
[Cl-].[Na+] [NaCl],Relative enzyme activity (%),[1],81.1 ± 4.2%
O=S(=O)([O-])[O-].[Ni+2] [NiSO4],Relative enzyme activity (%),[1]; [7],73.3 ± 3.3%
CCCCCCCC/C=C\CCCCCCCC(=O)OCCOCC(OCCO)C1OCC(OCCO)C1OCCO (centres unmarked) [Tween-80],Relative enzyme activity (%),[1]; [8],110.8 ± 2.9%
same,effect on the enzyme activity of Sumo-PulPy (in words),[1],weakly promote
O=S(=O)([O-])[O-].[Zn+2] [ZnSO4],Relative enzyme activity (%),[1]; [7],0%
OCCS [β-mercaptoethanol],Relative enzyme activity (%),[1]; [8],157.4 ± 3.0%
Triton X-100,Relative enzyme activity (%),[1]; [8],111.1 ± 3.6%
same,effect on the enzyme activity of Sumo-PulPy (in words),[1],weakly promote
"Sumo-PulPy: thermophilic recombinant type II pullulanase from Pyrococcus yayanosii CH1 (SEQ ID NO:1) with His and Sumo tags, expressed in E. coli (protein, His and Sumo tags; Protein translated from synthetic DNA) MGHHHHHHMSDSEVNQEAKPEVKPEVKPETHINLKVSDGSSEIFFKIKKTTPLRRLMEAFAKRQGKEMDSLRFLYDGIRIQADQTPEDLDMEDNDIIEAHREQIGGQRGSRRVLSLFVVFVVLGSLLALQPEVKAGEPKPLNVIIVWHQHQPYYYDPVQGIYTRPWVRLHAANNYWKMAYYLSKYPDVHATIDLSGSLIAQLADYMNGAKDIYQIITEKIAKGEPLTVEEKWLMLQAPGGFFDHTIPWNGEPVTDKNGNPIRDFWNRYTELKNKMLQAKAKYANLPLEEQKVAVTNEFTEQDYIDLAVLFNLAWIDYNYIMNTPELKALYEKVDEGGYTREDVRTVLKHQMWLLNHTFEEHEKINLLLGNGNVEVTVVPYAHPIGPILNDFGWEEDFDAHVKKAHELYKKYLGAGKVTPKGGWAAESALNDKTLEILAENGWQWVMTDQLVLQKLGIPYTVENYYKPWVAEFNGRKIYLFPRDHALSDRVGFTYSGMNQYQAVEDFINELLRIQKQNYDGSLVYVITLDGENPWEHYPYDGKLFLETLYKRLTELQRQGLIRTLTPSEYIKLYGDKANKLTPQMMERLDLTGDNVEALLKAQSLGELYDMIGVKEEMQWPESSWIDGTLSTWIGEPQENYGWYWLYLARKALMAQKDKMSQENWEKAYEYLLRAEASDWFWWYGSDQSSGQDYTFDRYFKTYLYEIYRLAGLEPPSYLYGNYFPDGEPYTIRALEGLGEGQVKEYSSMSPLAEGVSVYFDGEGVHFVVKGNLEKFEISIYEKGERVGNTFTLLQERPGELKYSLFPFSRDSVGLLITKHVVYRDGKAEIYAATDYENTEKVGEASVKQVDGGVEIVVPFDYIKTPEDFYFAVSTVKDGELEIITTPIELKLPMEVKGVPIVDVVDPEGDDYGPGTYTYPTDPVFVPHHLDLLRFRILEQTDAYVMEFYFKELGGNVWNAPNGFSLQIIEVYLDFREGGNTSAIKMFPDGPGANVNLDPEHPWDLALRIAGWDYGNLIVLPNGTVYQGELQISADPVNNKIIVKVPKKYIQIDEDYGLWGVVLVGSQDGYGPDKWRPVAVEAEQWRLGGADQQAVIDNLAPRVVDLLVPEGFKPTQEEQLSSYDLEKKILATVLMIPLIEGSGGEEPAETPRETAIPAESPTTTEAPTETQSTTTSQGPTETQTGGGICGPVALLGLVMTPLLLRRRR",hydrolysate of Amylose from potato,[2],"mainly oligosaccharides such as pentasaccharides, hexasaccharides, heptasaccharides, and octasaccharides"
same,specific enzyme activity,[3],5.37±0.20 U/mg
same,specific enzyme activity,"[3]; 95° C. and pH 6.6, no metal ions or chemical reagents added",5.37±0.20 U/mg
same,Km,[3],8.78 ± 0.89 mg/mL
same,Vmax,[3],5.37±0.20 U/mg
same,optimum pH,[4],6.6
same,loss of enzyme activity after disposal at pH 5.8 for 4 h,"[4]; 4° C., 4 h, pH 5.8, then assay at pH 6.6 and 95° C.",12%
same,pH stability / pH tolerance,[4],better pH tolerance; also recorded: very stable
same,pullulan hydrolysates,[5],most of the pullulan hydrolysates are maltotriose
same,remaining enzyme activity after heat preservation at 95° C. for 10 h,[6]; 10 h,greater than 50%
same,optimum temperature,[6],95 °C
"Δ28N+Δ791C: combined truncation mutant of PulPy: first 28 N-terminal amino acids and amino acids after position 790 deleted (SEQ ID NO:3) (protein, Protein translated from synthetic DNA) MGHHHHHHMSDSEVNQEAKPEVKPEVKPETHINLKVSDGSSEIFFKIKKTTPLRRLMEAFAKRQGKEMDSLRFLYDGIRIQADQTPEDLDMEDNDIIEAHREQIGGQRGSPKPLNVIIVWHQHQPYYYDPVQGIYTRPWVRLHAANNYWKMAYYLSKYPDVHATIDLSGSLIAQLADYMNGAKDIYQIITEKIAKGEPLTVEEKWLMLQAPGGFFDHTIPWNGEPVTDKNGNPIRDFWNRYTELKNKMLQAKAKYANLPLEEQKVAVTNEFTEQDYIDLAVLFNLAWIDYNYIMNTPELKALYEKVDEGGYTREDVRTVLKHQMWLLNHTFEEHEKINLLLGNGNVEVTVVPYAHPIGPILNDFGWEEDFDAHVKKAHELYKKYLGAGKVTPKGGWAAESALNDKTLEILAENGWQWVMTDQLVLQKLGIPYTVENYYKPWVAEFNGRKIYLFPRDHALSDRVGFTYSGMNQYQAVEDFINELLRIQKQNYDGSLVYVITLDGENPWEHYPYDGKLFLETLYKRLTELQRQGLIRTLTPSEYIKLYGDKANKLTPQMMERLDLTGDNVEALLKAQSLGELYDMIGVKEEMQWPESSWIDGTLSTWIGEPQENYGWYWLYLARKALMAQKDKMSQENWEKAYEYLLRAEASDWFWWYGSDQSSGQDYTFDRYFKTYLYEIYRLAGLEPPSYLYGNYFPDGEPYTIRALEGLGEGQVKEYSSMSPLAEGVSVYFDGEGVHFVVKGNLEKFEISIYEKGERVGNTFTLLQERPGELKYSLFPFSRDSVGLLITKHVVYRDGKAEIYAATDYENTEKVGEASVKQVDGGVEIVVPFDYIKTPEDFYFAVSTVKDGELEIITTPIELKLPMEVKGVP",specific enzyme activity,[3],32.18±0.92 U/mg
same,specific enzyme activity relative to Sumo-PulPy,[3],5.99 times
same,Km,[3],6.63 ± 0.56 mg/mL
same,Vmax,[3],32.18±0.92 U/mg
same,optimum pH,[4],6.4
same,pH stability / pH tolerance,[4],good pH tolerance
same,improvement of optimum temperature compared with Sumo-PulPy,[6],5 °C
same,thermal stability at 100° C. compared with Sumo-PulPy,[6],slightly improves
same,remaining enzyme activity after heat preservation at 100° C. for 2 h,[6]; 2 h,greater than 60%
same,optimum temperature,[6],100 °C
